Experimental data as given in the supplement of paper PMC6755084.

B1: minF1; a variant is named by its letters at N, in order (parent)
chain: GAGACCGCAACTGAAAAGTTGTTNNNNAANNNNNGGNTNAATTTCTGCACGTAGAAGCAAAAGGC

Variants of: B1
Experiment: fraction ligated after 30 min (ligated reads / total reads); higher = more ligase activity
Settings: with F1*subA RNA substrate (template-directed ligation), 42 °C
How it was run: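 Minimized ligase ribozyme variants came from oligo-pool templates that were PCR-amplified, T7-transcribed and gel-purified. Their ligated and unligated RNAs were separated on gels before barcoded reverse transcription and MiSeq sequencing, with core bases kept only at quality ≥30. The fraction ligated for each variant is its ligated reads as a proportion of all its reads.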

Variant	fraction ligated
ATAATGGATTG	0.00677
ATCGATGGAGT G35T A40G	0.0726
TCAGAGGATTG T23A	0.00302
TCAGATGGAGT T23A G35T	0.0188
CAGATGGTGTG T23A	0.0045
ATCGTGGTGTG	0.00665
TCGATGGATTG T23A	0.116
ATAGTGGATTG	0.00612
TCAGTGGATTG	0.0102
ATCAATGGTGT A28G A40G	0.00763
TCAGATGGAGT T23A A40G	0.0153
ATCAAAGGAGT A28G A40G	0.00414
ATCAATGTGTG	0.0057
CAGAGGATGTG A29T	0.00872
ATAGATGATGT A40G	0.00341
ATAGATGATTG	0.00301
AGAAGGATGTG T23A A29T	0.00429
ATCAGGATGTG A28G A29T	0.00511
CAGATGATGTG	0.00402
TCAGATGGTGT T23A A40G	0.00684
ATAGAGGATGT A40G	0.00594
TCAGATATGTG	0.000901
TCAGAGGATGT A40G	0.00564
ATCAAATAGTG A28G	0.00491
ATCGATGGAGT G35T T38G A40T	0.0031

Variant	fraction ligated
ATCAAAGGTGT A28G A40G	0.00781
CAAAGGATGTG T23A A29T	0.00472
CAAAGGATGTG A29T	0.00429
ATCAATGGTGT A40G	0.00841
ATCAATGGAGT A28G G35T A40G	0.0474
ATCATGATGTG A28G	0.00487
ATCAAATGAGT A28G	0.00227
ATCAATGATTG A28G	0.00338
ACAGATGGAGT G35T A40G	0.0182
ATAGATGTGTG	0.00472
TCGATGGATGT T23A A40G	0.0572
TAGATGGATGT T23A A40G	0.00768
ATCAAAGGTGT A28G	0.00198
ATCAATGGGTG A28G	0.00605
TCAGAGGATTG	0.00228
TGAAGGATGTG T23A A29T	0.00369
ATCGATGGAGT G35T T38G A40T A41G	0.00105
TCAGTGGATGT A40G	0.0137
TCGATGGTGTG T23A	0.00501
ATCAATGATGT A28G A40G	0.0266
ATCGAGGATTG	0.00198
AAGATGATGTG	0.0055
ACAGTGGAGTG	0.00292
ATGATGGATGT A40G	0.0235
ATCAAAGGTTG A28G	0.0026

Variant	fraction ligated
CAGAGGATGTG T23A A29T	0.00891
ATGATGATGTG	0.00356
ATCAAGGATGT A40G	0.0124
ACGATGGATTG	0.0663
TCAGATGTGTG T23A	0.00194
TCAGAGGTGTG T23A	0.0038
TCAATGGATTG	0.0203
ATCAGGATGTG A28G	0.00911
ATAGAGATGTG	0.00202
TCGATGGAGTG T23A	0.00843
TCAGATGATGT T23A A40G	0.0104
ATAATGGAGTG	0.00187
TAGATGGATGT A40G	0.00383
TAAAGGATGTG A29T	0.00359
ACAGATGGTGT	0.002
ATCGATGGTGT	0.00463
ATCAAATGAGT A28G G35T T38G A40T	0.00229
ATCGGGATGTG A29T	0.045
ACAGATGATGT A40G	0.00654
ATCAAATATGT A28G A40G	0.00354
ATCAAAGGAGT A28G G35T T38G A40T	0.00242
ATCAAGGTGTG A28G	0.00322
ATGATGGATTG	0.0074
TAGATGGATGT T23A	0.00257
ATAGATGGAGT G35T T38G A40T	0.000429

Variant	fraction ligated
ATCAATGGTGT	0.00377
TCAGTGGTGTG	0.00248
ATCAATGGAGT A28G	0.00328
ACAGATGATGT	0.00327
TCGATGGTGTG	0.00336
ACAGATGAGTG	0.00298
TCAGATGGAGT G35T	0.0137
ATCAAATGAGT A28G G35T A40G	0.0046
ATCAATATGTG A28G	0.00244
ATAGAGGATTG	0.00226
ATAGATGGTTG	0.00545
ACAGATGGTGT A40G	0.00805
ACGATGGTGTG	0.00555
ATCAATGATGT	0.00391
TCAGTGGTGTG T23A	0.00335
ATCGGGATGTG	0.00497
ACAGATGGAGT G35T	0.014
ATCGATGGAGT	0.00434
ATCAATGGAGT A28G G35T T38G A40T A41G	0.00208
ATCATGGAGTG	0.00635
ATAGATGATGT	0.000906
ACGATGGATGT	0.0146
AAGAGGATGTG A29T	0.00554
TCAGTGGATGT	0.00577
TCGATGGATGT	0.0171

Variant	fraction ligated
ATAGATGGGTG	0.00409
TCGAGGATGTG T23A	0
TCAGATGAGTG T23A	0.00316
TCAGGGATGTG A29T	0.00613
TCAGATATGTG T23A	0.000828
TCAGTGGAGTG	0.00343
ATCAAATTGTG A28G	0.00273
ATCATGGATGT	0.00625
ACAATGGATTG	0.0118
TCAGAGGAGTG	0.00402
ATCAATGTGTG A28G	0.00293
ATAGATGGTGT A40G	0.00815
TCGATGGATGT A40G	0.0635
TAGATGGATTG T23A	0.00337
CAGATGGAGTG T23A	0.00336
ACAGAGGATGT	0.00215
ATAGTGGAGTG	0
ACGATGATGTG	0.00228
ATCAAATGAGT A28G A40G	0.00391
TCAATGGATGT A40G	0.0177
ATCAAATGGGT A28G A40G	0.00524
TCAGAGATGTG	0.00161
AAGATGGATTG	0.00494
CAGATGGATGT A40G	0.0159
ATCAATGATGT A28G	0.00479

Variant	fraction ligated
TCAGATGGTTG T23A	0.00182
TCAGAGGTGTG	0.00137
ATAGTGGTGTG	0.0019
ACAGAGGAGTG	0.00131
TCGATGGATTG	0.127
CGAAGGATGTG A29T	0.0086
ATCAAAGATGT A28G A40G	0.0398
ATCGATATGTG	0.00384
ACAGAGGATTG	0.0039
ATAATGATGTG	0.00474
ACAGTGGTGTG	0.00205
AAGATGGAGTG	0.000852
ACGATGGAGTG	0.00302
ATCGATGATTG	0.00246
ATCATGGATGT A28G	0.00453
TCAGTGGAGTG T23A	0.00419
ACAATGGATGT	0.00325
TCAGATGGAGT G35T T38G A40T A41G	0.000378
ACAGATGGAGT G35T T38G A40T	0.00236
AGAAGGATGTG T23C A29T	0.0071
ATAAGGATGTG A29T	0.0199
